Experimental findings from PMC6687543 (Structure (London, England : 1993), 2019) are described below.

The assay has as its target T1, preformed binary complex IL-18/IL-18Rα-ECD ( | human, UniProt Q14116 37-193; Q13478 22-329).
T1 sequence (looked up) 1: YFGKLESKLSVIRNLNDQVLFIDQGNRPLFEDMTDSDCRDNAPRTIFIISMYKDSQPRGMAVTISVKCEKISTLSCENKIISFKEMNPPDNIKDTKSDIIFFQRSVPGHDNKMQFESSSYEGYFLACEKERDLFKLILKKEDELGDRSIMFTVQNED
T1 sequence (looked up) 2: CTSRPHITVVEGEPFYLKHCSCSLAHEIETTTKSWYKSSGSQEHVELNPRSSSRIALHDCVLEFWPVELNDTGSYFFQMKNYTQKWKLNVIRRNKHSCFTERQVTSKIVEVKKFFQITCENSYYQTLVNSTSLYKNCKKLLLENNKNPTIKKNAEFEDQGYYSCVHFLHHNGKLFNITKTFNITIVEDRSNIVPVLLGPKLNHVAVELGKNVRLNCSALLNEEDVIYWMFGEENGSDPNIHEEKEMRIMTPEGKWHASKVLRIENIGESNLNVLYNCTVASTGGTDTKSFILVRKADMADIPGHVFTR
The assay can be described thus: SPR.

B1: IL-18Rβ-ECD (extracellular domain of IL-18 receptor beta), wild type (receptor, human, UniProt O95256 20-354, looked up)
chain: FNISGCSTKKLLWTYSTRSEEEFVLFCDLPEPQKSHFCHRNRLSPKQVPEHLPFMGSNDLSDVQWYQQPSNGDPLEDIRKSYPHIIQDKCTLHFLTPGVNNSGSYICRPKMIKSPYDVACCVKMILEVKPQTNASCEYSASHKQDLLLGSTGSISCPSLSCQSDAQSPAVTWYKNGKLLSVERSNRIVVDEVYDYHQGTYVCDYTQSDTVSSWTVRAVVQVRTIVGDTKLKPDILDPVEDTLEVELGKPLTISCKARFGFERVFNPVIKWYIKDSDLEWEVSVPEAKSIKSTLKDEIIERNIILEKVTQRDLRRKFVCFVQNSIGNTTQSVQLKE
modifications: biotin (biotinylated IL-18Rβ-ECD, site not stated)
With B1, the binding result is listed as “binds”.
